Sequences and labels used below:
B1: NRC3_wobSeed70_DR2_o1 (dsDNA)
DNA 1: GCGTACCAAGGTGAATAGGTCGTTGATGAGTAGGCGGCGATTGACAGCGTAGAATGAAGG
DNA 2: CCTTCATTCTACGCTGTCAATCGCCGCCTACTCATCAACGACCTATTCACCTTGGTACGC
B2: NRC3_wobSeed1_DR0_T12C_o1 (dsDNA)
DNA 1: GCCAAACTAGGCCAAGGTCAAAGTCGGTTTGTGCCAGCGATTGACAGCGTAGAATGAAGG
DNA 2: CCTTCATTCTACGCTGTCAATCGCTGGCACAAACCGACTTTGACCTTGGCCTAGTTTGGC
B3: NRC3_wobSeed42_DR1_G11A_o1 (dsDNA)
DNA 1: GCTATACAGGATCAAAGGCCAGAGTACGAATGTCGAGCGATTGACAGCGTAGAATGAAGG
DNA 2: CCTTCATTCTACGCTGTCAATCGCTCGACATTCGTACTCTGGCCTTTGATCCTGTATAGC
B4: NRC3_wobSeed93_DR3_T17A_o1 (dsDNA)
DNA 1: GCAGTCAAAGTTCATCAAGGTAACGTAAGATATGCTGCGATTGACAGCGTAGAATGAAGG
DNA 2: CCTTCATTCTACGCTGTCAATCGCAGCATATCTTACGTTACCTTGATGAACTTTGACTGC
B5: NRC3_wobSeed124_DR5_T26C_o1 (dsDNA)
DNA 1: GCCCTACTGGGCCATTCAGAGGTCACTGATCATATGGCGATTGACAGCGTAGAATGAAGG
DNA 2: CCTTCATTCTACGCTGTCAATCGCCATATGATCAGTGACCTCTGAATGGCCCAGTAGGGC
B6: NRC3_wobSeed98_DR4_A19G_o1 (dsDNA)
DNA 1: GCACTAGTTGGTCAGCTGGGGTCACACACAATTCGGGCGATTGACAGCGTAGAATGAAGG
DNA 2: CCTTCATTCTACGCTGTCAATCGCCCGAATTGTGTGTGACCCCAGCTGACCAACTAGTGC
B7: NRC3_wobSeed2_DR0_A20C_o1 (dsDNA)
DNA 1: GCCCTAGTTGGTCAAGGTCCCACACGCTATAGGTACGCGATTGACAGCGTAGAATGAAGG
DNA 2: CCTTCATTCTACGCTGTCAATCGCGTACCTATAGCGTGTGGGACCTTGACCAACTAGGGC
B8: NRC3_wobSeed88_DR3_C21T_o1 (dsDNA)
DNA 1: GCTAGCCTAGGTCATGCGGGTCAGTATAGTGTCGGCGCGATTGACAGCGTAGAATGAAGG
DNA 2: CCTTCATTCTACGCTGTCAATCGCGCCGACACTATACTGACCCGCATGACCTAGGCTAGC
B9: NRC3_wobSeed130_DR5_C17G_o1 (dsDNA)
DNA 1: GCCTCGAAAGGTCGTGGTCAGGTGAGTATACCAAACGCGATTGACAGCGTAGAATGAAGG
DNA 2: CCTTCATTCTACGCTGTCAATCGCGTTTGGTATACTCACCTGACCACGACCTTTCGAGGC
B10: NRC3_wobSeed82_DR3_T25A_o1 (dsDNA)
DNA 1: GCATCGAAAGGTCGACGAGGTGAGAATACACCGTTTGCGATTGACAGCGTAGAATGAAGG
DNA 2: CCTTCATTCTACGCTGTCAATCGCAAACGGTGTATTCTCACCTCGTCGACCTTTCGATGC
B11: NRC3_wobSeed27_DR1_C4G_o1 (dsDNA)
DNA 1: GCAGTCGGAGGACAAAGGTCAGAGCTACGCCAGTGAGCGATTGACAGCGTAGAATGAAGG
DNA 2: CCTTCATTCTACGCTGTCAATCGCTCACTGGCGTAGCTCTGACCTTTGTCCTCCGACTGC
B12: NRC3_wobSeed5_DR0_G23C_o1 (dsDNA)
DNA 1: GCCCTTACGGGTCAAGGTTATACCACGGGTGGTACGGCGATTGACAGCGTAGAATGAAGG
DNA 2: CCTTCATTCTACGCTGTCAATCGCCGTACCACCCGTGGTATAACCTTGACCCGTAAGGGC
B13: NRC3_wobSeed65_DR2_G27T_o1 (dsDNA)
DNA 1: GCATATGTAGGTTATCGGGTCATTCATTTTGCGCATGCGATTGACAGCGTAGAATGAAGG
DNA 2: CCTTCATTCTACGCTGTCAATCGCATGCGCAAAATGAATGACCCGATAACCTACATATGC
B14: NRC3_wobSeed65_DR2_T15C_o1 (dsDNA)
DNA 1: GCATATGTAGGTTACCGGGTCATTCAGTTTGCGCATGCGATTGACAGCGTAGAATGAAGG
DNA 2: CCTTCATTCTACGCTGTCAATCGCATGCGCAAACTGAATGACCCGGTAACCTACATATGC
B15: NRC3_wobSeed4_DR0_A14G_o1 (dsDNA)
DNA 1: GCCCTACTGGGCCGAGGTCATTGATCAGTCAAAGCAGCGATTGACAGCGTAGAATGAAGG
DNA 2: CCTTCATTCTACGCTGTCAATCGCTGCTTTGACTGATCAATGACCTCGGCCCAGTAGGGC
B16: NRC3_wobSeed4_DR0_T8A_o1 (dsDNA)
DNA 1: GCCCTACAGGGCCAAGGTCATTGATCAGTCAAAGCAGCGATTGACAGCGTAGAATGAAGG
DNA 2: CCTTCATTCTACGCTGTCAATCGCTGCTTTGACTGATCAATGACCTTGGCCCTGTAGGGC
B17: NRC3_wobSeed4_DR0_T25C_o1 (dsDNA)
DNA 1: GCCCTACTGGGCCAAGGTCATTGACCAGTCAAAGCAGCGATTGACAGCGTAGAATGAAGG
DNA 2: CCTTCATTCTACGCTGTCAATCGCTGCTTTGACTGGTCAATGACCTTGGCCCAGTAGGGC
B18: NRC3_wobSeed58_DR2_A25T_o1 (dsDNA)
DNA 1: GCATCGAAAGGTCGTGAGGTGAGTTTACAGAAAGGCGCGATTGACAGCGTAGAATGAAGG
DNA 2: CCTTCATTCTACGCTGTCAATCGCGCCTTTCTGTAAACTCACCTCACGACCTTTCGATGC
B19: NRC3_wobSeed58_DR2_G18A_o1 (dsDNA)
DNA 1: GCATCGAAAGGTCGTGAAGTGAGTATACAGAAAGGCGCGATTGACAGCGTAGAATGAAGG
DNA 2: CCTTCATTCTACGCTGTCAATCGCGCCTTTCTGTATACTCACTTCACGACCTTTCGATGC
B20: NRC3_wobSeed58_DR2_T26C_o1 (dsDNA)
DNA 1: GCATCGAAAGGTCGTGAGGTGAGTACACAGAAAGGCGCGATTGACAGCGTAGAATGAAGG
DNA 2: CCTTCATTCTACGCTGTCAATCGCGCCTTTCTGTGTACTCACCTCACGACCTTTCGATGC
B21: NRC3_wobSeed74_DR3_G10C_o1 (dsDNA)
DNA 1: GCTCTAGTTCGTCACGGAGGTCACACACGACGGGTAGCGATTGACAGCGTAGAATGAAGG
DNA 2: CCTTCATTCTACGCTGTCAATCGCTACCCGTCGTGTGTGACCTCCGTGACGAACTAGAGC
B22: NRC3_wobSeed74_DR3_T8C_o1 (dsDNA)
DNA 1: GCTCTAGCTGGTCACGGAGGTCACACACGACGGGTAGCGATTGACAGCGTAGAATGAAGG
DNA 2: CCTTCATTCTACGCTGTCAATCGCTACCCGTCGTGTGTGACCTCCGTGACCAGCTAGAGC
B23: NRC3_wobSeed118_DR4_G15A_o1 (dsDNA)
DNA 1: GCTTACCAAGGTGAACTGAGGTCGTTGATCCAACTCGCGATTGACAGCGTAGAATGAAGG
DNA 2: CCTTCATTCTACGCTGTCAATCGCGAGTTGGATCAACGACCTCAGTTCACCTTGGTAAGC
B24: NRC3_wobSeed116_DR4_G26T_o1 (dsDNA)
DNA 1: GCAGAATGAGGTTACCAAAGATCAGTGAAACGCTTGGCGATTGACAGCGTAGAATGAAGG
DNA 2: CCTTCATTCTACGCTGTCAATCGCCAAGCGTTTCACTGATCTTTGGTAACCTCATTCTGC
B25: NRC3_wobSeed116_DR4_A6G_o1 (dsDNA)
DNA 1: GCAGAGTGAGGTTACCAAAGATCAGGGAAACGCTTGGCGATTGACAGCGTAGAATGAAGG
DNA 2: CCTTCATTCTACGCTGTCAATCGCCAAGCGTTTCCCTGATCTTTGGTAACCTCACTCTGC
B26: NRC3_wobSeed21_DR0_A15T_o1 (dsDNA)
DNA 1: GCCGTCAAAGTTCATGGTAACGTAACAGAAAGCAGCGCGATTGACAGCGTAGAATGAAGG
DNA 2: CCTTCATTCTACGCTGTCAATCGCGCTGCTTTCTGTTACGTTACCATGAACTTTGACGGC
B27: NRC3_wobSeed21_DR0_C21A_o1 (dsDNA)
DNA 1: GCCGTCAAAGTTCAAGGTAAAGTAACAGAAAGCAGCGCGATTGACAGCGTAGAATGAAGG
DNA 2: CCTTCATTCTACGCTGTCAATCGCGCTGCTTTCTGTTACTTTACCTTGAACTTTGACGGC
B28: NRC3_wobSeed50_DR2_C4T_o1 (dsDNA)
DNA 1: GCCTTAGTTGGTCAGGAGGTCACACACCGGATATGAGCGATTGACAGCGTAGAATGAAGG
DNA 2: CCTTCATTCTACGCTGTCAATCGCTCATATCCGGTGTGTGACCTCCTGACCAACTAAGGC
B29: NRC3_wobSeed50_DR2_T8A_o1 (dsDNA)
DNA 1: GCCCTAGATGGTCAGGAGGTCACACACCGGATATGAGCGATTGACAGCGTAGAATGAAGG
DNA 2: CCTTCATTCTACGCTGTCAATCGCTCATATCCGGTGTGTGACCTCCTGACCATCTAGGGC
B30: NRC3_wobSeed125_DR5_G17T_o1 (dsDNA)
DNA 1: GCCCTTACGGGTCACTTACAGGTTATAGCATTTGGAGCGATTGACAGCGTAGAATGAAGG
DNA 2: CCTTCATTCTACGCTGTCAATCGCTCCAAATGCTATAACCTGTAAGTGACCCGTAAGGGC
B31: NRC3_wobSeed125_DR5_G22C_o1 (dsDNA)
DNA 1: GCCCTTACGGGTCACTGACAGCTTATAGCATTTGGAGCGATTGACAGCGTAGAATGAAGG
DNA 2: CCTTCATTCTACGCTGTCAATCGCTCCAAATGCTATAAGCTGTCAGTGACCCGTAAGGGC

For the data set, the target named is LXRb:RXRa (Homo sapiens, UniProt P55055;P19793 full;full). The data set is described as follows: no ligand; PBM; 270 nM : 90 nM RXRa; PBS pH 7.4, 2% milk, 0.02% Triton X-100, 1 mM DTT, BSA, 0.4 mg/ml salmon testes DNA. The note with it: tags: His kept;His cleaved; copies: 1;1; label: surface-attached array probe. The method in brief: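 Antibodies against each partner of ligand-free nuclear receptor dimers (one per run) detected binding on custom Agilent 4×180K protein-binding microarrays after 1 h incubation. The double-stranded probes had 34-nt variable regions carrying direct-repeat seeds, single-nucleotide variants, half-site ablations and random human genomic background sequences. Binding z-scores, from regression-normalized fluorescence, use the random background probes as reference.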
LXRb:RXRa, sequence (P55055 whole entry, chain 1 of 2): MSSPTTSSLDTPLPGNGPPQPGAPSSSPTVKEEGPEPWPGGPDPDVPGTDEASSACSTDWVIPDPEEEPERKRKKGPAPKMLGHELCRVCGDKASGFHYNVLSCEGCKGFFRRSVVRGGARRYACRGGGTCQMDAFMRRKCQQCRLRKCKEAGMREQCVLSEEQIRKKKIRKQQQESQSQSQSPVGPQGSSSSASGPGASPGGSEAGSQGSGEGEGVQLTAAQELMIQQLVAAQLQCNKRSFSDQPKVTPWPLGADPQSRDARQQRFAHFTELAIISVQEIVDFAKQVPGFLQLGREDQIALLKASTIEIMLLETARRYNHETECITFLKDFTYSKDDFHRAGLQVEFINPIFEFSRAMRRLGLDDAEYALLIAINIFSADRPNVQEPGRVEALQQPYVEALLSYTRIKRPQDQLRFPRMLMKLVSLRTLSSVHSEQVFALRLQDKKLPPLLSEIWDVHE
LXRb:RXRa, sequence (P19793 whole entry, chain 2 of 2): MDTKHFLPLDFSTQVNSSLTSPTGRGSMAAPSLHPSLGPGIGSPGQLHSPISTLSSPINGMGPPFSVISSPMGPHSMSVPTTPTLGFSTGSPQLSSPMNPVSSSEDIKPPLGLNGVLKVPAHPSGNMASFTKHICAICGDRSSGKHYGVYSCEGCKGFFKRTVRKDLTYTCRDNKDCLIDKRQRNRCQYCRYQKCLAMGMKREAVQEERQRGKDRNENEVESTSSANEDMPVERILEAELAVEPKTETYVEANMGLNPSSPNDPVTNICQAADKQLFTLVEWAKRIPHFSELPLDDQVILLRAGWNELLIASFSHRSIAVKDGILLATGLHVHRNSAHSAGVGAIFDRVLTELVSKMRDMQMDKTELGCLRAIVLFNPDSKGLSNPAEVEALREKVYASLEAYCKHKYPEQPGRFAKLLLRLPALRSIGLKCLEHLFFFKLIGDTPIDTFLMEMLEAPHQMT
Regarding B1, the binding signal was 0.5 PBM z-score against 500 random probes. In the case of B2 it was 3.41 PBM z-score against 500 random probes; in that of B3, 0.47 PBM z-score against 500 random probes. The same measure for B4: 3.53 PBM z-score against 500 random probes; for B5: 3.39 PBM z-score against 500 random probes. In the case of B6 it was 3.54 PBM z-score against 500 random probes; in that of B7, 0.48 PBM z-score against 500 random probes. Take B8: the binding signal is 3 PBM z-score against 500 random probes. The same measure for B9: 3.33 PBM z-score against 500 random probes.

In the case of B10, the binding signal was 3.13 PBM z-score against 500 random probes. Take B11: the binding signal was 3.47 PBM z-score against 500 random probes. The same measure for B12: 3.06 PBM z-score against 500 random probes; for B13: 3.32 PBM z-score against 500 random probes. In the case of B14 it was 3.17 PBM z-score against 500 random probes; in that of B15, 3.45 PBM z-score against 500 random probes. In the case of B16 it was 3.02 PBM z-score against 500 random probes. As to B17, the binding signal is 3.2 PBM z-score against 500 random probes.

For the molecule B18, the binding signal is 3.5 PBM z-score against 500 random probes.

B19: the binding signal is 3.09 PBM z-score against 500 random probes. For the molecule B20, the binding signal is 3.15 PBM z-score against 500 random probes.

Regarding B21, the binding signal was 3.52 PBM z-score against 500 random probes. The same measure for B22: 3.16 PBM z-score against 500 random probes; for B23: 3.08 PBM z-score against 500 random probes; for B24: 3.35 PBM z-score against 500 random probes.

For B25, the binding signal was 3.28 PBM z-score against 500 random probes. B26: the binding signal was 3.49 PBM z-score against 500 random probes. In the case of B27 it was 3.04 PBM z-score against 500 random probes; in that of B28, 3.43 PBM z-score against 500 random probes. In the case of B29 it was 3.37 PBM z-score against 500 random probes. In the case of B30 it was 3.58 PBM z-score against 500 random probes; in that of B31, 3.19 PBM z-score against 500 random probes.

The values are drawn from PMC6555819, “Comprehensive study of nuclear receptor DNA binding provides a revised framework for understanding receptor specificity”.
